Data on one substance can be found in PMC6965176, “Targeting Forward and Reverse EphB4/EFNB2 Signaling by a Peptide with Dual Functions” (Scientific Reports, 2020).

Data set [1] deals with T1, EphB4 (Homo sapiens, UniProt P54760).
T1 construct: purchased R&D Systems
T1 sequence (P54760 16-987): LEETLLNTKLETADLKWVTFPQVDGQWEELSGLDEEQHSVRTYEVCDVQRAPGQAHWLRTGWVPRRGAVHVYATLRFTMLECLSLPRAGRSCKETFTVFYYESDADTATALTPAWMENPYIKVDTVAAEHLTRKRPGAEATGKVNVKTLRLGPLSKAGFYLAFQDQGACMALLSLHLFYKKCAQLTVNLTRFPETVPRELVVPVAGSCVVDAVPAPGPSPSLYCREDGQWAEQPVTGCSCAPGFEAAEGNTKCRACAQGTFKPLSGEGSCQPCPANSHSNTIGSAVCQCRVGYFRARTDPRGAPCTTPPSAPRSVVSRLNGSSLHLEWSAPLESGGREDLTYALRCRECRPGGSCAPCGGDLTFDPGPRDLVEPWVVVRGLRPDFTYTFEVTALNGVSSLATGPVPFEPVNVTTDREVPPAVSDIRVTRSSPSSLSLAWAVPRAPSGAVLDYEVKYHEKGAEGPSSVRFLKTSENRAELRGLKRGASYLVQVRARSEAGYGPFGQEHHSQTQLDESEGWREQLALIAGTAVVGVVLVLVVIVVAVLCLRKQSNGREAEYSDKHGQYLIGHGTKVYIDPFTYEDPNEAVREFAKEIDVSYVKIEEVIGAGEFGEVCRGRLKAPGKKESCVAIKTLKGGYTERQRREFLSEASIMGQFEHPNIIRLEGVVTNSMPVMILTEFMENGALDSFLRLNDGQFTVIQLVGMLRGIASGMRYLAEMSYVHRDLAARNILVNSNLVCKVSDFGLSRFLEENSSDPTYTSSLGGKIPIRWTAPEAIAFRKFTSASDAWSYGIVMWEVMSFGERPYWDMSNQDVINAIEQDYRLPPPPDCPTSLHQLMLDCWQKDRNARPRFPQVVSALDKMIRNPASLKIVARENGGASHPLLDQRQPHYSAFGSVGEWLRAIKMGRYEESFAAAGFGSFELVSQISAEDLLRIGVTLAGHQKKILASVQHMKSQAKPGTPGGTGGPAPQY
Briefly: SPR (BIACore) binding of peptides to immobilized EphB4. As to conditions: rhEphB4-coated chips, 0.16-20 nM equivalent BIDEN-AP, duplicate, visual inspection; poor fitting to 1:1 or 1:2 models (Fig. 3B). An excerpt:
Surface plasmon resonance (SPR) binding and competition assays.
Immunoblotting, immunoprecipitation, and co-immunoprecipitation.
For orientation: In SPR one partner is held on a chip, and binding of the other changes the refractive index at the surface.

The nature of data set [2]: Transmission electron microscopy particle size. It is filed as physicochemical. The conditions noted are these: transmission electron microscopy (Fig. 3C). How it is done:
examined with a JEM 1010 transmission electron microscope (JEOL USA, Inc., Peabody, MA) at an accelerating voltage of 80 kV. Digital images were obtained using the AMT Imaging System (Advanced Microscopy Techniques Corp., Danvers, MA).
Surface plasmon resonance (SPR) binding and competition assays. A stock solution of EphB4 in PBS (100 µg/mL) was diluted to 25 µg/mL with 10 mM sodium acetate buffer (pH 4.5) and immobilized to CM5 sensor chips using the amine coupling reaction according to manufacturer-provided procedures (BIACore). Briefly, the surfaces of the chips in flow cells (FC)- 1 and FC-2 were activated by exposing chips to a mixture of 200 mM N-ethyl-N’- dimethylaminopropyl carbodiimide and 50 mM N-hydroxysuccinimide for 7 min. FC-1 was used as a reference surface and was directly deactivated by injecting 1 M ethanolamine at pH 8.5 for 7 min. […]
Binding assays were performed in duplicate at 25°C in HBSEP running buffer. […] Thus, all analyzed samples, including a sample of the running buffer, were additionally injected onto an uncoated reference surface. The association rate (Kon) and dissociation rate (Koff) were calculated by fitting binding chromatogram data using the BIACore evaluation software with a 1:1 Langmuir binding model. […]

The test system of data set [3] is RF24_Bev cells. The data set can be described thus: Cell death in bevacizumab-resistant RF24 cells (SYTOX-green flow cytometry). It is filed as cell-based. The conditions noted are these: VEGF + Bev, SYTOX-negative live cells by flow cytometry (Fig. 4C,D). On the procedure: Figure 4 BIDEN-AP–based agents inhibit tube formation and sensitize resistant endothelial cells to anti-VEGF antibody. (A,B) Tube formation by RF24 cells treated with EFNB2-Fc (2 nM) or BIDEN-AP (15 µM) compared to untreated controls (CTL). Representative data from three independent experiments are presented. (A) Representative microphotographs of tubes formed by RF24 cells are shown (n = 3). Images were taken at × 100 magnification. (B) Quantification of the number of nodes per field in three technical replicates. […] (C) Representative flow cytometry plots from three independent experiments of RF24_Bev cells are shown here. SYTOX-negative staining represents the live cell population.
Given the important role of endothelium in adaptive changes with antiangiogenic therapy, we further tested the effects of BIDEN-AP in overcoming resistance to anti-VEGF therapy in RF24 endothelial cells. To do this, we first established a bevacizumab (Bev)-resistant RF24 cell line (RF24_Bev) selected though continuous Bev treatment at low dose ([…]) for 2 weeks. The RF24_Bev cells were maintained at a Bev concentration of […]. Using flow cytometry with SYTOX-green staining, we quantified the live (SYTOX-negative) vs. dead (SYTOX-positive) populations after treatment with BIDEN-AP or CCPM-BIDEN-AP.
Background: A flow cytometer gives signals particle by particle.

Non-standard residues stand in square brackets, D forms with d. No end group written: not given here.

As for “CCPM-BIDEN-AP: nanoconjugate of BIDEN-AP with core-crosslinked polymeric micelles (CCPM) (TN[dY]LFSPNGPIARAW; also: conjugated to core-crosslinked polymeric micelles (CCPM))”, the “binding avidity to immobilized EphB4 (SPR sensorgrams)” value in data set [1] was “stronger binding avidity to EphB4 than the unconjugated BIDEN-AP peptide”. The substance further showed a mean diameter in data set [2] of 24 ± 3 nm. Further, the “re-sensitization of bevacizumab-resistant endothelial cells to Bev” value in data set [3] was “re-sensitized these cells to Bev treatment”.
